{"source": "patent US8147817B2", "about": "“IL-33 in the treatment and diagnosis of diseases and disorders” (The Brigham and Women's Hospital, Inc., priority 2006, dated 2012)", "molecules": {"B1": {"name": "IL-33: recombinant mature rat IL-33, starting with amino acid 109 of the full-length protein, N-terminal His tag (GenBank BC081993) (protein)", "chain": "SIQGTSLLTESCALSTYNDQSVSFVLENGCYVINVEDCGKNQEKDKVLLRYYESSFPAQSGDGVDGKKLMVNMSPIKDTDIWLNANDKDYSVELQKGDVSPPDQAFFVLHKKSSDFVSFECKNLPGTYIGVKDNQLALVEENDESCNNIMFKLSKM", "modifications": "left off: small tags and cut ends"}}, "tested_on": "lungs of Sham-operated mice", "assay": "Lung histology of Sham-operated mice after IL-33 treatment", "type": "in vivo, mouse", "settings": "2 μg/day rat IL-33 for 7 days", "note": "“Also recorded” adds a separate entry of the source.", "experimental": "Targeted ST2−/− mice and their WT littermates were employed for the experiments. […] All operative procedures were performed by a single operator with over 20 years rodent cardiac surgery experience who was blinded to genotype and the randomized treatment assignment. Following the procedure, each mouse received daily i.p. injection of recombinant rat IL-33 (2 μg) or vehicle from the day after TAC operation until the day of harvest."}
{"molecule": "B1", "values": [{"measurement": "inflammatory changes in lung", "setting": "ST2−/− mice", "result": "None of these changes were observed; also recorded: These changes were not observed"}, {"measurement": "epithelial lining of the airways", "setting": "WT mice", "result": "remained unchanged"}, {"measurement": "infiltration of inflammatory cells in lung", "setting": "WT mice", "result": "Mild infiltration of inflammatory cells within vessel walls and adjacent to the vessels; also recorded: mild focal infiltrations of inflammatory cells"}]}
